Source: a protein production outcome set (Wang et al. 2014)

Test: label from the status in PepcDB records

Sequence | protein production
MHATQAILQGLRPVWTRPARLILTTPMSTTPPVPSPLQRGTLKQRRNTLPKRSNRHRDGRVYYANLAATMIARDNLRAAQIILAESHRRHPAFCDTRLMEAGVHLSLGRSDAAEAALRICHEAEPDEQRAVSGLVEIALERADATTARQLLEDQPQTPTFDLARARIALFNGDPSAARTFLDAHPAEGSTTVLAAFADAMEGDLDTAIARLNAQANRTDAALALAALQAAAGVVPDAAPSSPTASFFTALNPAANDDRRAALNAAEGFEQGFTAAGLDAVPQGSPDLALGVVFRLWGFHGAALERLVAASNDDPENPLAAYFVAVAHLKLGQNAQAEAALAKARTAAPSFFAANIAAAELRIRAGAPQEALAMLKAAVAVREDPGALMRIGLIEESFGDDDTARAAYERFVAVQPGSYIGYNQLAWHLARRGIELDRAQELAERANTLQPENASVLDTLGWIAFLRGDGAGAIERLRAAHEISQGDIPIISFHLAQAELKYGETPRGIALLQDLTAAGPAAYPFSQEATDILAKALQ | failed
MNKKKDILVIGFALFSIFFGAGNLIFPPYIGLTSGGEWLISFLGFIISDVGIIFLSIVAVSKAGSFQGVVGRAGKKFGITLEILMMLCLGPILVVPRTAATTFEMSISPLLGNVNPYVFSVIFFLIVFVLTIKPNKVMDIIGKVLTPLLLISLAVLIIKGIINPIGDLENVNSGKLFMTGITQGYQTMDALGTGGIVALVMASFASKGYKDKKENRMLTIKSALIACIGLAIVYGGLTFLGATSSTLYDSSISQTTLLMNITNAILGSTGTIMLAIVIGLACLTTAVGLTSVTAKYFEDVSNKKLKYKYIVIAICVFSALSSNLGVDKIIEIAVPILSLIYPVSILLVVMSIFEKFVPNNVVVKGATYATLLISLLTVIDSLGIKFEFVHKLPLANLGFNWVVPAIVGGLIAGLVFRKREVVSLEESY | failed
MGKKKNKKTEVQQPDPMRKNWIMENMDSGVIYLLESWLKAKSQETGKEISDIFANAVEFNIVLKDWGKEKLEETNTEYQNQQRKLRKTYIEYYDREMK | not failed
MPEQTYMYAYVTLPHHDQRERYTQKCYRDGRRIVLASYDLMGSERFSFKEKLRKSMKGMNESAERWVSEVRQGENLNSIDNYYRLYKGKI | failed
MRRFVIGQAKNLIDQSRRRQLHHHKNLSFVSLIPPFSAPSDSSSRHLSSSSSSDMSASDSSSSLPVTLDTINPKVIKCEYAVRGEIVNIAQKLQEDLKTNKDAYPFDEIIYCNIGNPQSLGQQPITFFREVLALCSYTALLDESATHGLFSSDSIERAWKILDQIPGRATGAYSHSQGIKGLRDAIADGIEARDGFPADPNDIFMTDGASPGVHMMMQLLITSEKDGILCPIPQYPLYSASIALHGGTLVPYYLDEASGWGLEISELKKQLEDARSKGITVRALAVINPGNPTGQVLSEENQRDVVKFCKQEGLVLLADEVYQENVYVPDKKFHSFKKVARSMGYGEKDLALVSFQSVSKGYYGECGKRGGYMEVTGFTSDVREQIYKMASVNLCSNISGQILASLIMSPPKPGDDSYESYIAEKDGILSSLARRAKTLEEALNKLEGVTCNRAEGAMYLFPCLHLPQKAIAAAEAEKTAPDNFYCKRLLKATGIVVVPGSGFRQVPGTWHFRCTILPQEDKIPAIVDRLTAFHQSFMDEFRD | failed
MMLAVEDVLSELAGEERNERGLPPGFRFHPTDEELITFYLASKIFHGGLSGIHISEVDLNRCEPWELPEMAKMGEREWYFYSLRDRKYPTGLRTNRATTAGYWKATGKDKEVFSGGGGQLVGMKKTLVFYKGRAPRGLKTKWVMHEYRLENDHSHRHTCKEEWVICRVFNKTGDRKNVGLIHNQISYLHNHSLSTTHHHHHEALPLLIEPSNKTLTNFPSLLYDDPHQNYNNNNFLHGSSGHNIDELKALINPVVSQLNGIIFPSGNNNNDEDDFDFNLGVKTEQSSNGNEIDVRDYLENPLFQEASYGLLGFSSSPGPLHMLLDSPCPLGFQL | failed
MAPLDSKSAGGEPGVWKSGRGRGRRLPKGRVYSDEALAAVRGVLGDRPRRRDLLIEFLHLIQDVYGHLSADHLAALAFEMKLGQAEVYETATFYAHFDVVKEGETPPPALTIRVCDSLSCALAGAEQLRAALEEGLDPGQVRVLRAPCMGRCDTAPVLELGHNHIDHATPEKVRAAIAAGDTHAHLPDYEGFDAYAAAGGYAVLKGLRAGGDWEAVQDSVLAAGLRGLGGAGFPSGRKWGFVRANPGPRYLAVNGDEGEPGTFKDRYYLERVPHLFLEGMLIAAWAVEAETCYIYMRDEYPAVLEILRREIAALEAAGIVAKGYIDLRRGAGAYICGEESAMIESIEGKRGLPRHRPPFVAQVGLFGRPTLVHNIETLHWVARVCREGPEVLNSIEKNGRKGLRSYSVSGRVARPGVHLLPAGSTIRDVIAAAGGMAAGHVFKAYQPGGPSSGLLPASMDDIPLDFDTLQPHGSFIGSAAVVVLSQQDSARDAALNMLRFFEDESCGQCTPCRAGCEKAVKLMQAEHWDQPLLEELCQVMADASICGLGQAAPNPIRLTMKHFAEEI | failed
MTPLVSRLSRLWAIMRKPRAAVGSGHRKQAASQEGRQKHAKNNSQAKPSACDGLARQPEEVVLQASVSSYHLFRDVAEVTAFRGSLLSWYDQEKRDLPWRRRAEDEMDLDRRAYAVWVSEVMLQQTQVATVINYYTGWMQKWPTLQDLASASLEEVNQLWAGLGYYSRGRRLQEGARKVVEELGGHMPRTAETLQQLLPGVGRYTAGAIASIAFGQATGVVDGNVARVLCRVRAIGADPSSTLVSQQLWGLAQQLVDPARPGDFNQAAMELGATVCTPQRPLCSQCPVESLCRARQRVEQEQLLASGSLSGSPDVEECAPNTGQCHLCLPPSEPWDQTLGVVNFPRKASRKPPREESSATCVLEQPGALGAQILLVQRPNSGLLAGLWEFPSVTWEPSEQLQRKALLQELQRWAGPLPATHLRHLGEVVHTFSHIKLTYQVYGLALEGQTPVTTVPPGARWLTQEEFHTAAVSTAMKKVFRVYQGQQPGTCMGSKRSQVSSPCSRKKPRMGQQVLDNFFRSHISTDAHSLNSAAQ | failed
MLKKIDDSESLLDTAALAPLQRFVERECRLLDEQRFEEWLALYLPEATYWAPATRDNPDPDSQVSLFWDDKETMQTRVQRLLHPEIHSQIPASVTVRLTSNFRAAVAPGGEKDAYQVECRFIMVEDRLGSPRQQFAGTFNYLLVQNGAAFRIRQKRVDLTNCDHAFHTLTQPF | not failed
MQMSEKFKQIRARLRLPVLVAPMLRISGPALVAASCSNGVIGSFPTVNARTPDQLDRWIDEIKQAVSAAGAYDAPYCANILARSDPDKLQADLKILIKHKVEIVLVSTGAPEKYVKPLQDIGCFVIADVASIRHARKALQQGVDGLALLTAGAGGQTGWANGFAFVRAIRDFYDGPLLLAGGVSDGQALWAARTLGCDLGLMGTRFIGTQECDASDGYKAMLVDSSIDDVVLTRGISGIDANFLRPSIIACGLDPQELVAPVSPERAREMFSSYADGMRGPKRWVDLWSAGHTVSGVKVVQSVSEVVDQLAVEYTRAQRATRAPLADADDPAI | failed
ARHPDLVSCLTLLQAGDVAAFTVWKAARDPKGVLATPILGHVAMRRMAPKRMPAWYALSVGKADMISELCRCAERSFQHGAQWSLASAYQCYMDPAVELPRPHQPLLSIWGGADFSHPAGNEHSIRRLRPDAVCVTFDDLGHTPELEDPIRVFDAIVRFCEA | failed
VRLRNLVESDRERLLIWRNSPDVSAYMYSDHKIGHEEHDHWFDVARHDPRRRYWIIEADGEPVGLANLADIDLVHRRCAWAYYLASPKVRGLGVGSFVEFQIIEYVFNQLHLNKLWCEVLISNESVWRLHELYGFQREALFRQHVMKQGHEVDVIGLGLLASDWAARR | failed
MITLARTLLLFACLLPSIHVKAEPSLQPHYKIATEADDVVTRVLFDAVSTEFGVSVEYINYASFDAILDAVANEDADFAANITYTDTRAERFSYSRPTNIEYTYLYGLSDSTLDDISRVGVPQNTIYSELIKQYHPELKQVPYKGHNEAVRLLQTGLVDGVVDAINQLKPMLLEGFDAKMLNDQISIKPVSIISKKGHHLEELDTFASFIHGEAVQKQLREQIALYQFELRRSALRDAIKLLPVDLKEPIRIKMESIFPYVVYNPDGTVQGMTADIVLQSCEILDLNCVIISEPNESWESMYRQFMKGEFDILAPLTVSRERHEFSYFPRPHYSPASVMVKRLGYKPNTYSHVSQLISERIGVVKDDFFDQMMTQLLPLKELERFNTQHDLIEALLKGEVDYIPMDTAMLNHFLRLSELVPIEQDTAIGEFYSSQLSIGLVANERGAMLAPYFSRAIAMLGVDKIVAQYDLRPDWRTALEYEVRLATQTQAVFLFVLVLAICVSLYLYRQSNTDNLTGLRNRRSLQVKYRQGVNKDLAILYLDINHFKQINDTYGHLAGDEVLQLLSLKIHRVWSGRSYRIGGDEFILLGYPTQIELSRAVQELSRLDVTDKLCAELKTVTISVGVSEKRKQHMSLEQALHLADEDMYVSKHSSRHYSGSSNYLVQS | failed
MSRPSVNRSGEMEIFAKAVELGGFSAAARHYRMTPSAVSKLVLRLEERLGVRLVNRSTRKLQLTPEGHAFYERTVRILADIDEAERSASAGESPVGRVRLNVNASFGTHVLMPLVPEFRAHFPAVSLDIVMTDAVVDLMEARADVAIRAGPLKSSTLIARKLGATRMMIVAAPSYIERYGMPSSLEELKGHERLGFCYARAVDGWPLRTDGETVVLPASGAVQVSDGEGLRQLALAGAGLARLAEFTVREDVSARRLVPVLEDLNPGDLEEVHAVYLGQGGALPARVRAVLDFLARHARITPGQDAGRRRTSPIPAPA | failed
MIAMILVHPHIFWLSLGGLLLAAEMLGGNGYLLWSGVAAVITGLTVWLLPLGWEWQGVLFAALTLLAAWLWWRWLARRVREQKPTDSRLNQRGQQLVGRRFMLDAALVNGRGHMRVGDSSWPVCADEDLRAGTHVEVIAVEGITLRIRAV | failed
MNDIQQALQEALTHHQAGRLGEAKTLYDAILHAQPGQPDAMHFLGLLACQLKQYDAGLALMERSLAERPDASYFNNLGNMLRECGRLDDAIAHYRRAVALRPDYPEAHNNLGNALRDARDPAEAMRSCSRAIELRPGYAEAYNNLGNVLQDLGELDAAAASYGKAIAFHPAYAEAHSNLGNVLRAQERHADAIVHYRRAIELNPALRVAHRGLAIALRATDDFDGALEHARAGLEPDDAEGHCMLGRSLRSMNDFDGAARLFERACEIDPGYAPAWCRLGELRCQQGEYEESLRLCRHAIELDPELADAYNFLGLAYHNLDRMAASELSHRHAIDLNPDDADAHHNLAAALFRLDKLDEAMSEYRIAQELGVDPVKIQLTLGDILWAKRDFSGAVAAFREAVEHDPHRAYARLLFNMSSSPAFAPEEWVVDAQRYGDYLARDARLLSHDREQRARQARGRPLRVGFVSGDLRQHPVGIFLESVLAHLDRTRIEPHAYVTFVVEDDVTARLKTGFASWKKLTCLNRDQAARMIHDDGIDVLVDLAGHTNWSGLPVFAHRPAPVQASWLGFFATTGCRAIDYFIGDPHTLPADEAHHFVEQPWHLPDSYLCFTPPAYDVAVGPLPMATNGGVTFGCFGKLTKISDDVIALWSRLLHALPDARLMLKAHELGASDLNRATLERFARHGIGAHQLILEGGSPRAEYFNAYNRIDIALSPFPYPGGTTTAEALWMGVPVIGMKGGRFVTHICESLLHAAGMGDWIAADEDAYLAKAIAFAGDRDALAALRATLRERTLASPLCDAARFARNLEDAFHGMWARYVAGDTDGART | failed
MIMRKFASRVKDIQLSEIRKIFEVADEDTINLGIGEPDFSVPDHVREAVKDAVDEGLTHYTSNMGMEELREAIADKLKSENRVHAEPESIIVTVGASEAIFMCTQALLDIGDHALIPDPGFLSYDACVRLSGAVSIPVPLSMDEGFSMSPERVESLITQDTRVIIMNSPSNPTGSVMGKDDVKGIAEIAEDNDLIIISDEIYEKIIYDGKHYSPAQFTDNALIVNGFSKTYAMTGLRIGYVAGCEDIIEELLKVHQYNTACAPSISQYAALAAIRGPQNCVKDMVDEFRRRRDLMFRSLTDMGLECVLPGGAFYMFPYAGDSEEFTKLSLEAGVAVVPGSAFGNEGKGYIRMSYATSYELIEEAMERLKTVCGV | failed
